According to the supplement of paper PMC7877785:
± gives the uncertainty stated by the source.

Experiment: self-splicing fitness, log relative to wild type (ln ratio); higher = more splicing; Tetrahymena group I intron in knt gene, E. coli kanamycin selection, DiMSum; sequences stand for … in CUCUCU…GGAGGGAAAAGUUAUCAGGCAUGCACCUGGUAGCUAGUCUUUAAACCAAUAGAUUGCAUCGGUUUAAAAGGCAAGACCGUCAAAUUGCGGGAAAGGGGUCAACAGCCGUUCAGUACCAAGUCUCAGGGGAAACUUUGAGAUGGCCUUGCAAAGGGUAUGGUAAUAAGCUGACGGACAUGGUCCUAACCACGCAGCCAAGUCCUAAGUCAACAGAUCUUCUGUUGAUAUGGAUGCAGUUCACAGACUAAAUGUCGGUCGGGGAAGAUGUAUUCUUCUCAUAAGAUAUAGUCGGACCUCUCCUUAAUGGGAGCUAGCGGAUGAAGUGAUGCAACACUGGAGCCGCUGGGAACUAAUUUGUAUGCGAAAGUAUAUUGAUUAGUUUUGGAGUACUCGUGGUCG
Outline: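 DiMSum derived fitness as the error-weighted combination of fold changes across replicates, kanamycin versus no kanamycin, normalised to wild type. E. coli BL21(DE3) held the library, which randomised all eight P1ex-region intron nucleotides within the knt kanamycin-resistance gene on pET-22b(+). Six replicate transformations grew overnight at 37°C or 30°C on LB agar with or without 25 μg/mL kanamycin, also containing 100 μg/mL carbenicillin, 50 μM IPTG and 0.2% rhamnose, and pooled colonies were amplicon-sequenced on an Illumina HiSeq 2500.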

Sequence | self-splicing fitness (ln) (30 °C) | self-splicing fitness (ln) (37 °C)
CAAGAGCAAUAUUACGCUAU | -3.62 ± 0.38 | -2.19 ± 0.27
CAAGAGCAAUAUUACGGGCA | -2.96 ± 0.24 | -1.79 ± 0.23
CAAGAGCAAUAUUACGGGUU | -3.54 ± 0.18 | -3.25 ± 0.23
CAAGAGCAAUAUUACGGUGU | -3.52 ± 0.15 | -2.08 ± 0.17
CAAGAGCAAUAUUACGUAUG | -3.02 ± 0.13 | -1.36 ± 0.15
CAAGAGCAAUAUUACGUCCC |  | -1.59 ± 0.28
CAAGAGCAAUAUUACGUCUA | -2.41 ± 0.13 | -1.56 ± 0.11
CAAGAGCAAUAUUACGUCUC | -3.6 ± 0.17 | -2.73 ± 0.18
CAAGAGCAAUAUUACGUCUG | -1.45 ± 0.15 | -0.511 ± 0.16
CAAUAGCAAUAUUACGAGAU | -2.72 ± 0.12 | -2.82 ± 0.17
CAAUAGCAAUAUUACGAGGU | -4.24 ± 0.28 | -1.93 ± 0.21
CAAUAGCAAUAUUACGAUGG | -1.09 ± 0.074 | -0.114 ± 0.096
CAAUAGCAAUAUUACGCACC | -3.66 ± 0.3 | 
CAAUAGCAAUAUUACGCCAG | -1.21 ± 0.12 | -0.652 ± 0.15
CAAUAGCAAUAUUACGCCGA | -2.61 ± 0.26 | -1.59 ± 0.17
CAAUAGCAAUAUUACGCGGA | -3.59 ± 0.35 | -2.05 ± 0.16
CAAUAGCAAUAUUACGCGUG | -1.93 ± 0.092 | -1.44 ± 0.095
CAAUAGCAAUAUUACGCUCU | -3.28 ± 0.24 | -1.88 ± 0.17
CAAUAGCAAUAUUACGGAUA | -3.03 ± 0.48 | -2.77 ± 0.35
CAAUAGCAAUAUUACGGCGG | 0.429 ± 0.11 | -0.0335 ± 0.14
CAAUAGCAAUAUUACGGCUA | -2.26 ± 0.22 | -2.1 ± 0.19
CAAUAGCAAUAUUACGGCUU | -2.53 ± 0.13 | -1.42 ± 0.13
CAAUAGCAAUAUUACGGUGA | -2.83 ± 0.23 | -2.09 ± 0.21
CAAUAGCAAUAUUACGUAGG | -0.348 ± 0.092 | -0.384 ± 0.14

Sequence | self-splicing fitness (ln) (30 °C) | self-splicing fitness (ln) (37 °C)
CAAUAGCAAUAUUACGUCCU | -3.78 ± 0.42 | -2.4 ± 0.28
CAAUAGCAAUAUUACGUCGC | -4.1 ± 0.36 | -2.56 ± 0.29
CAAUAGCAAUAUUACGUCGG | -0.177 ± 0.069 | 0.202 ± 0.083
CAAUAGCAAUAUUACGUCUA | -2.78 ± 0.19 | -2.52 ± 0.21
CAAUAGCAAUAUUACGUGGA | -3.29 ± 0.25 | -2.92 ± 0.22
CAAUAGCAAUAUUACGUGGG | -3.7 ± 0.15 | -3.49 ± 0.21
CAAUAGCAAUAUUACGUGUU | -4.08 ± 0.16 | -2.95 ± 0.17
CAAUAGCAAUAUUACGUUCG | -0.45 ± 0.057 | 0.556 ± 0.081
CACAAGCAAUAUUACGAAAG | -0.721 ± 0.08 | 0.0107 ± 0.1
CACAAGCAAUAUUACGAAAU | -2.91 ± 0.19 | -3.24 ± 0.24
CACAAGCAAUAUUACGACAA | -3.12 ± 0.2 | -2.04 ± 0.17
CACAAGCAAUAUUACGACCC | -2.15 ± 0.4 | -0.814 ± 0.24
CACAAGCAAUAUUACGACCG | 0.562 ± 0.17 | 0.582 ± 0.2
CACAAGCAAUAUUACGACGA | -0.927 ± 0.11 | -0.995 ± 0.12
CACAAGCAAUAUUACGACGC | -2.86 ± 0.32 | -1.17 ± 0.18
CACAAGCAAUAUUACGAUCG | -0.581 ± 0.069 | 0.875 ± 0.091
CACAAGCAAUAUUACGAUGA | -2.99 ± 0.11 | -1.21 ± 0.09
CACAAGCAAUAUUACGAUGG | -0.756 ± 0.045 | 0.369 ± 0.07
CACAAGCAAUAUUACGCAAG | -1.54 ± 0.087 | -0.814 ± 0.1
CACAAGCAAUAUUACGCGAC | -2.93 ± 0.15 | -3.22 ± 0.27
CACAAGCAAUAUUACGCUCA | -1.45 ± 0.093 | -0.209 ± 0.097
CACAAGCAAUAUUACGGACA | -2.34 ± 0.12 | -2.29 ± 0.12
CACAAGCAAUAUUACGGACC | -3.41 ± 0.24 | -1.73 ± 0.2
CACAAGCAAUAUUACGGAUA | -1.79 ± 0.15 | -2.4 ± 0.17
